Columns and labels:
Details in all cases: protein: recombinant; tags: 10xHis-MBP N-terminal; blunt DNA 54 bp; R-loop
SpuFz1 [1] = target: T1, SpuFz1 (Spizellomyces punctatus ATCC 48900, UniProt A0A0L0H5U9 1-622); assay: cryo-EM structure; State I, 8-bp heteroduplex; RNP purification buffer 20 mM HEPES pH 7.5, 150 mM NaCl, 2 mM MgCl2, 4.5 mM TCEP, 4 C; ternary complex assembly conditions not in the material
SpuFz1 [2] = target: T1, SpuFz1; assay: cryo-EM structure; State V, 15-bp heteroduplex, lid down; RNP purification buffer 20 mM HEPES pH 7.5, 150 mM NaCl, 2 mM MgCl2, 4.5 mM TCEP, 4 C; ternary complex assembly conditions not in the material
SpuFz1 [3] = target: T1, SpuFz1; assay: cryo-EM structure; State VI, 15-bp heteroduplex, weak lid density; RNP purification buffer 20 mM HEPES pH 7.5, 150 mM NaCl, 2 mM MgCl2, 4.5 mM TCEP, 4 C; ternary complex assembly conditions not in the material
SpuFz1 [4] = target: T1, SpuFz1; assay: cryo-EM structure; State IV, dsDNA unwound on RuvC; RNP purification buffer 20 mM HEPES pH 7.5, 150 mM NaCl, 2 mM MgCl2, 4.5 mM TCEP, 4 C; ternary complex assembly conditions not in the material

T1 sequence (A0A0L0H5U9 entry or part of it): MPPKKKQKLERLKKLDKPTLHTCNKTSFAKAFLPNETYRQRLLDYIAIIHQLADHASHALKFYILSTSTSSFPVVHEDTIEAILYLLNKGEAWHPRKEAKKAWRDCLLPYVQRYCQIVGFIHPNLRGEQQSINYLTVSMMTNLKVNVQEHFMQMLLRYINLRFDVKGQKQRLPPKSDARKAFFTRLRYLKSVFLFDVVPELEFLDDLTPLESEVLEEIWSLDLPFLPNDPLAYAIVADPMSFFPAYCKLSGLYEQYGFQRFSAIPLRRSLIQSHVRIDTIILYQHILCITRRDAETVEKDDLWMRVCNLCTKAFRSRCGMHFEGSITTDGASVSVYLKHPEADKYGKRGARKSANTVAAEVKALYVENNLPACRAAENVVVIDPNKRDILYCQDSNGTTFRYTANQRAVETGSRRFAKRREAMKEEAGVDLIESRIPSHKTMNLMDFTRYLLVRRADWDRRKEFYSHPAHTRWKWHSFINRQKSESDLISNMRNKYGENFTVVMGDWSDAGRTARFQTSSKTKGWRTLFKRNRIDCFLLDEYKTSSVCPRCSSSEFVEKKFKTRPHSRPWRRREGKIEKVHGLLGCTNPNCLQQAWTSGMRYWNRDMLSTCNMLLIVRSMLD

B1: SpuFz1 omegaRNA + ds2 (mixed)
RNA: GUUUUCCGAGCCGGUUGUCGCGCGGUUCAAUCCCUGGUGCGGGUGCUAGUGCCAAUACCCACCGGCUCCGCACUAUCUAUAGGUUAUGA
DNA 1: ATTCGAGCTCGGTACCCGGGCATATCTATAGGTTATGAAATCAAATTACAAATA
DNA 2: TATTTGTAATTTGATTTCATAACCTATAGATATGCCCGGGTACCGAGCTCGAAT
modifications: phosphorothioates, TS partially modified, NTS unmodified
Question: Does B1 bind (SpuFz1 [1])?
Answer: binds

B2: SpuFz1 omegaRNA + ds5 (mixed)
RNA: GUUUUCCGAGCCGGUUGUCGCGCGGUUCAAUCCCUGGUGCGGGUGCUAGUGCCAAUACCCACCGGCUCCGCACUAUCUAUAGGUUAUGA
DNA 1: ATTCGAGCTCGGTACCCGGGCATATCTATAGGTTATGAAATCAAATTACAAATA
DNA 2: TATTTGTAATTTGATTTCATAACCTATAGATATGCCCGGGTACCGAGCTCGAAT
modifications: phosphorothioates, TS fully modified, NTS unmodified
Question: Does B2 bind (SpuFz1 [2])?
Answer: binds

B3: SpuFz1 omegaRNA + ds6 (mixed)
RNA: GUUUUCCGAGCCGGUUGUCGCGCGGUUCAAUCCCUGGUGCGGGUGCUAGUGCCAAUACCCACCGGCUCCGCACUAUCUAUAGGUUAUGA
DNA 1: ATTCGAGCTCGGTACCCGGGCATATCTATAGGTTATGAAATCAAATTACAAATA
DNA 2: TATTTGTAATTTGATTTCATAACCTATAGATATGCCCGGGTACCGAGCTCGAAT
modifications: phosphorothioates, NTS fully modified, TS unmodified
Question: Does B3 bind (SpuFz1 [3])?
Answer: binds

B4: SpuFz1 omegaRNA + ds3 (mixed)
RNA: GUUUUCCGAGCCGGUUGUCGCGCGGUUCAAUCCCUGGUGCGGGUGCUAGUGCCAAUACCCACCGGCUCCGCACUAUCUAUAGGUUAUGA
DNA 1: ATTCGAGCTCGGTACCCGGGCATATCTATAGGTTATGAAATCAAATTACAAATA
DNA 2: TATTTGTAATTTGATTTCATAACCTATAGATATGCCCGGGTACCGAGCTCGAAT
modifications: phosphorothioates, NTS partially modified, TS unmodified
Question: Does B4 bind (SpuFz1 [4])?
Answer: binds

— publication PMC11423790, “Structural Insights into the Diversity and DNA Cleavage Mechanism of Fanzor”
